Laboratory results: patent US20250011363A1, “OPTIMIZED SHORTENED PEPTIDE THAT BINDS TO ACETYLCHOLINE RECEPTOR, AND USE THEREOF” (SKINMED CO., LTD., priority 2021, published 2025)

Tests used:
[1] = biological target: acetylcholine receptor on acetylcholine receptor-overexpressing TE671 cells; assay: cell-based or functional assay
[2] = biological target: acetylcholine receptor; assay: SPR, AchR immobilized on chip

Substance: Synake (peptide)
- inhibition of acetylcholine receptors (calcium imaging with Fura-2-AM, TE671 cells, nicotine 400 uM) [1]: 500 µM
- Binding affinity (RU) [2]: 14 RU
